The values that follow come from article doi:10.1101/054106.

For this assay, the target named is potato ADP-glucose pyrophosphorylase (AGPase) small subunit, wild type (potato (S. tuberosum)) (UniProt P23509). As to the kind of experiment: native gel or EMSA. In general terms: In EMSA bound probe runs differently from free probe, usually more slowly.
potato ADP-glucose pyrophosphorylase (AGPase) small subunit, wild type (potato (S. tuberosum)), sequence (P23509 73-521): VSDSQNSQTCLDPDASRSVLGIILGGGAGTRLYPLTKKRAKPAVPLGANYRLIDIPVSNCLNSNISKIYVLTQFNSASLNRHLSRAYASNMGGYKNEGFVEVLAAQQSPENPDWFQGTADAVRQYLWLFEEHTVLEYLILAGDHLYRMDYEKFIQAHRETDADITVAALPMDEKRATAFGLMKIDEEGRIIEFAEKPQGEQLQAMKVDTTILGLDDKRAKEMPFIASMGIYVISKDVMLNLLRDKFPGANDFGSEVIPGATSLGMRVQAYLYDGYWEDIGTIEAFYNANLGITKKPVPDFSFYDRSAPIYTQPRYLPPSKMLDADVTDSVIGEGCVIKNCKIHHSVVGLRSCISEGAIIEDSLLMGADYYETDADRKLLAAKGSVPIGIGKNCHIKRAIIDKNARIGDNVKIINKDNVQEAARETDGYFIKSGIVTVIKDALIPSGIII

“potato ADP-glucose pyrophosphorylase (AGPase) large subunit, E370G mutant (enzyme)” showed a percent in the form of heterotetramers of 90%.

For the substance “potato ADP-glucose pyrophosphorylase (AGPase) large subunit, E370R mutant (enzyme)”, the percent of total band intensity in the dimer band was determined as 40%.
